Laboratory results from patent publication US20250320312A1 (OXITOPE PHARMA B V, published 2025).
Positions count from the first letter of the chain named. Values belong to the binder of their own block, whether it stands above or below them.

Assays:
PC-BSA = assay: ELISA (DELFIA TRF), PC-BSA coated, titrated IgG1
BSA [1] = biological target: BSA (UniProt P02769); assay: scFv ELISA, periplasmic extract on coated BSA, anti-V5-HRP detection
[2] = biological target: T1, Peptide 4: Biotin-…-Tyr-acid; assay: scFv ELISA, periplasmic extract on coated peptide, anti-V5-HRP detection
T1 sequence (peptide, N-terminal biotin; C-terminal acid): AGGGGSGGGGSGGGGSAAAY

[3] = biological target: T2, Peptide 8: Biotin-…-Tyr-acid; assay: as above
T2 sequence (peptide, N-terminal biotin; C-terminal acid): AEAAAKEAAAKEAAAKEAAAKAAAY

BSA [4] = biological target: BSA (UniProt P02769); assay: scFv ELISA
[5] = biological target: T3, Peptide 1: Biotin-AGGGGSGGGGSGGGGSAAA-[Tyr(PC)]-acid (N-terminal biotin; C-terminal Tyr(PC), PC = p-diazophenyl phosphoryl choline; C-terminal acid); assay: scFv ELISA
T3 construct: Synthetic phosphocholine-conjugated peptide
T3 peptide: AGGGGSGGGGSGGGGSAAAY
Summary of the method: (§1)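 Bound scFv was read as OD450 after HRP–anti-V5 detection, TMB development and HCl stop. PPE with BSA was incubated 1 h at RT on BSA-blocked wells coated overnight at 4° C. with peptide, or on streptavidin wells loaded 1 h with biotinylated PC-peptides at 1 μg/mL.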

[6] = biological target: T4, Peptide 4: Biotin-AGGGGSGGGGSGGGGSAAA-Tyr-acid (N-terminal biotin; C-terminal acid); assay: scFv ELISA
T4 construct: Control peptide without PC
T4 peptide: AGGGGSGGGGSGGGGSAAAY
Summary of the method: as §1

[7] = biological target: T5, Peptide 5: Biotin-AEAAAKEAAAKEAAAKEAAAKAAA-[Tyr(PC)]-acid (N-terminal biotin; C-terminal Tyr(PC), PC = p-diazophenyl phosphoryl choline; C-terminal acid); assay: scFv ELISA
T5 construct: Synthetic phosphocholine-conjugated peptide
T5 peptide: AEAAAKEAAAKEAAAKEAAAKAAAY
Summary of the method: as §1

[8] = biological target: T6, Peptide 8: Biotin-AEAAAKEAAAKEAAAKEAAAKAAA-Tyr-acid (N-terminal biotin; C-terminal acid); assay: scFv ELISA
T6 construct: Control peptide without PC
T6 peptide: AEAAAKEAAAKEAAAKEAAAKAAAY
Summary of the method: as §1

[9] = biological target: Peptide 5: Biotin-…-[Tyr(PC)]-acid; assay: scFv ELISA
[10] = biological target: T7, Peptide 1: Biotin-AGGGGSGGGGSGGGGSAAA-[Tyr(PC)]-acid (N-terminal biotin; C-terminal Tyr(PC), PC = p-diazophenyl phosphoryl choline; C-terminal acid); assay: scFv ELISA
T7 peptide: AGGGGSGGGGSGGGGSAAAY
Summary of the method: as §1

[11] = biological target: T8, Peptide 4: Biotin-AGGGGSGGGGSGGGGSAAA-Tyr-acid (N-terminal biotin; C-terminal acid; no PC); assay: scFv ELISA
T8 construct: control peptide without PC
T8 peptide: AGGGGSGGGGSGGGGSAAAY
Summary of the method: as §1

[12] = biological target: T9, Peptide 8: Biotin-AEAAAKEAAAKEAAAKEAAAKAAA-Tyr-acid (N-terminal biotin; C-terminal acid; no PC); assay: scFv ELISA
T9 construct: control peptide without PC
T9 peptide: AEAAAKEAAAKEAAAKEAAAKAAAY
Summary of the method: as §1

[13] = biological target: T10, Peptide 5: Biotin-AEAAAKEAAAKEAAAKEAAAKAAA-[Tyr(PC)]-acid (N-terminal biotin; C-terminal Tyr(PC), PC = p-diazophenyl phosphoryl choline; C-terminal acid); assay: scFv ELISA
T10 peptide: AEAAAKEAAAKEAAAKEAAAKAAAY
Summary of the method: as §1

Peptide 4 = biological target: T11, Peptide 4 (N-terminal biotin; C-terminal Tyr without PC conjugation; C-terminal acid); assay: scFv ELISA, OD450
T11 construct: Unconjugated control peptide
T11 peptide: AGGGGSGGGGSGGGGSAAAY
Experimental: (§2) For ELISA analysis of scFv binding, 96-well polystyrene plates were coated with Peptide 1, 4, 5, 8 or 100 μL BSA (10 μg/mL) in PBS at 4° C. overnight. Plates were washed three times with PBS-Tween and blocked with 100 μL 1% BSA-TBS for 1 hour at room temperature. 96-well streptavidin coated plates were coated with 100 μL biotinylated PC-peptides (1 μg/mL) in PBS for 1 hour at room temperature.
(§3) All plates were washed three times with PBS-Tween before 40 μL aliquots of PPE were added to assay plates along with 50 μL 10% BSA, and plates were incubated for 1 hour at room temperature. After washing, […] HRP conjugated anti-V5 in 5% BSA was added, and plates were incubated at room temperature for 30 mins. Plates were washed and 100 μL TMB substrate was added. Color was left to develop at room temperature before the reaction was stopped with 100 μL 1N HCl. The amount of scFv bound to each well was quantitated from absorbance measurement at 450 nm (OD450).

Peptide 8 = biological target: T12, Peptide 8 (N-terminal biotin; C-terminal Tyr without PC conjugation; C-terminal acid); assay: scFv ELISA, OD450
T12 construct: Unconjugated control peptide
T12 peptide: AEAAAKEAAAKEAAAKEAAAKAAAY
Experimental: as §2, §3

PC-BSA, sequence (P02769 25-607 limits assumed, form in doubt): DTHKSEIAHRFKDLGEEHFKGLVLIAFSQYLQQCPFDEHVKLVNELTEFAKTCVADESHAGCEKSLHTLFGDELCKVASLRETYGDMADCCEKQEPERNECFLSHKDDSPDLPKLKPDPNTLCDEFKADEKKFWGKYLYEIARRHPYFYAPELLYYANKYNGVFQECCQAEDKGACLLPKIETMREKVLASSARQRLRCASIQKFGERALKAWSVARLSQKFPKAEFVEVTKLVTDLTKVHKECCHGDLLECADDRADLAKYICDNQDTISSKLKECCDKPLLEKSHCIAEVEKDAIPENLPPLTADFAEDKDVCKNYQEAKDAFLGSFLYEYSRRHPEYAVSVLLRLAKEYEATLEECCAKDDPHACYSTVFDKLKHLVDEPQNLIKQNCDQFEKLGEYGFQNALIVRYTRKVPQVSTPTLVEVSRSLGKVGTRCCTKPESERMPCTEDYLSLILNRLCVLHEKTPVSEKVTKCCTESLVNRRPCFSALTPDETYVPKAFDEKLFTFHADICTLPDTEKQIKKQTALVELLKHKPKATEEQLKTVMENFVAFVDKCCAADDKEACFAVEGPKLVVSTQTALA
BSA, sequence (P02769 25-607 limits assumed): as the sequence (P02769 25-607 limits assumed, form in doubt) above

EC50 (PC-BSA): 0.394 nM
B1: PcOxP_DB02_C09 (human IgG1) (antibody, V domains shown)
VH: EVQLLESGGGLVQPGGSLRLSCAASGFTFSDAYMEWVRQAPGKGLEWVAASRNKANDYTTEYADSVKGRFTISRDNSKNTLYLQMNSLRAEDTAVYYCARDYYGSSYWYFDVWGQGTLVTVSS
VL: DIQMTQSPSSLSASVGDRVTITCTASESLYSSKHKVHYLAWYQQKPGKAPKLLIYGAGNRYIGVPSRFSGSGSGTDFTLTISSLQPEDFATYYCAQFYFYPLTFGGGTKVEIK

EC50 (PC-BSA): 0.257 nM
B2: PcOxP_DB04_G01 (human IgG1) (antibody, V domains shown)
VH: B1 VH with A32Y, A55W, G104L
VL: DIVMTQSPDSLAVSLGERATINCKASQSVLSSKNNVNYLAWYQQKPGQPPKLLIYGASNRYIGVPDRFSGSGSGTDFTLTISSLQAEDVAVYYCAQFYQYPLTFGGGTKVEIK

EC50 (PC-BSA): 0.264 nM
B3: PcOxP_DB02_A05 (human IgG1) (antibody, V domains shown)
VH: B1 VH with F29G, A32F, A55W
VL: B2 VL with K24T, Q27E, V29L, L30Y, N34H, N35K, N37H, S58G, Q99S

EC50 (PC-BSA): 0.244 nM
B4: PcOxP_DB03_G11 (human IgG1) (antibody, V domains shown)
VH: B1 VH with D31S, A32Y
VL: B2 VL with A25S, N34H, N35K, V36K, Q99S

OD450 (BSA [1]): 0.07 OD450 | OD450 [2]: 0.06 OD450 | OD450 [3]: 0.07 OD450
B5: PcOxP_DB04_H01 (scFv) (scFv, part only; not given: linker, domain order, V5 tag, V domains shown, not shown: another chain or arm of the molecule; small tags and cut ends)
VH: B1 VH with A32Y, A55Y
VL: B2 VL with K24T, Q27E, V29L, L30Y, N34H, N35K, N37H, I62S, Q99N

EC50 (PC-BSA): 0.244 nM
B6: PcOxP_DB01_H08 (human IgG1) (antibody, V domains shown)
VH: B1 VH with F29H, A32F
VL: DIQMTQSPSSLSASVGDRVTITCRASESISSSKHKHYLAWYQQKPGKAPKLLIYGASNRYIGVPSRFSGSGSGTDFTLTISSLQPEDFATYYCAQFYVYPLTFGGGTKVEIK

EC50 (PC-BSA): 0.216 nM
B7: PcOxP_DB03_G03 (human IgG1) (antibody, V domains shown)
VH: B1 VH with F29S, A32F
VL: B1 VL with E27Q, L29I, Y30S, G58S, R60H, F99S

OD450 (BSA [4]): 0.06 OD450 | OD450 [5]: 0.06 OD450 | OD450 [6]: 0.05 OD450 | OD450 [7]: 0.1 OD450 | OD450 [8]: 0.05 OD450
B8: PcOxP_DB02_G03 (scFv, V domains shown)
VH: B1 VH with T28G, A32F, F110H
VL: DIVMTQSPDSLAVSLGERATINCTASEDLYSSKHKVHYLAWYQQKPGQPPKLLIYGTSNRYIGVPDRFSGSGSGTDFTLTISSLQAEDVAVYYCAQYYSYPLTFGGGTKVEIK
notes: scFv in periplasmic extract

OD450 (BSA [4]): 0.07 OD450 | OD450 [9]: 0.92 OD450 | OD450 [10]: 0.1 OD450 | OD450 [11]: 0.05 OD450 | OD450 [12]: 0.05 OD450
B9: PcOxP_DB01_H07 (scFv, V domains shown)
VH: B1 VH with A32H, A55Y, Y102I
VL: B8 VL with D28S, L29V, H34N, V36K, T57A, Y97F
notes: scFv in periplasmic extract

OD450 (BSA [4]): 0.06 OD450 | OD450 [9]: 0.19 OD450 | OD450 [5]: 0.07 OD450 | OD450 [6]: 0.04 OD450 | OD450 [8]: 0.06 OD450
B10: PcOxP_DB02_H02 (scFv, V domains shown)
VH: B1 VH with F27P, A32F
VL: B8 VL with D28S, T57A, Y97F, S99D
notes: scFv in periplasmic extract

OD450 (BSA [4]): 0.09 OD450 | OD450 [10]: 0.06 OD450 | OD450 [11]: 0.09 OD450 | OD450 [13]: 0.09 OD450 | OD450 [12]: 0.04 OD450
B11: PcOxP_DB01_H09 (scFv, V domains shown)
VH: B1 VH with A32Y, D57T, F110D
VL: B8 VL with D28S, T57A, Y97F
notes: scFv in periplasmic extract

B12: PcOxP_DB02_E06 (scFv) (scFv, V domains shown)
VH: B1 VH with A32E, N53G, A55G, D57S
VL: B1 VL with G58S, F99S
notes: scFv in periplasmic extract
binding result (Peptide 4): no binding (tested: avg neg. control OD450 + 3x SD) | binding result (Peptide 8): no binding (tested: avg neg. control OD450 + 3x SD)
